Reference: patent US7125658B2, “Small protein that interacts with a ribonucleotide reductase subunit and uses thereof” (The Trustees of Columbia University in the City of New York, priority 1998, dated 2006)

T1: GAD-Rnr2 two-hybrid fusion (plasmid pWJ746) (yeast (Saccharomyces cerevisiae), UniProt P09938 1-399)
T1 sequence (looked up): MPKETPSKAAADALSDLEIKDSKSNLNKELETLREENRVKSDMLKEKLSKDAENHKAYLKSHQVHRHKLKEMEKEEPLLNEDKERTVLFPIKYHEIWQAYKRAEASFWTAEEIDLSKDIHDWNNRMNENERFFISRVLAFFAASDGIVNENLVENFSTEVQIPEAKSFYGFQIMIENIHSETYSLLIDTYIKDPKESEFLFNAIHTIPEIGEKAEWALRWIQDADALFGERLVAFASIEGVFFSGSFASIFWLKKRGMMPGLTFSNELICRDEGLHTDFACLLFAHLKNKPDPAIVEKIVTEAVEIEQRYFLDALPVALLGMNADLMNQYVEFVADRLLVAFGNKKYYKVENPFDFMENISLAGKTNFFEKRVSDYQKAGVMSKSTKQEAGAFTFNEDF

T2: GAD (Gal4 activation domain alone, empty vector control) (UniProt P04386 768-881)
T2 sequence (looked up): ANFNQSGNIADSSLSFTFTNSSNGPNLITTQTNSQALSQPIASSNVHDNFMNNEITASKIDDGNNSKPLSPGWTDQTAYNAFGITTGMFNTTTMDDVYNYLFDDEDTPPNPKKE

T3: GAD-Rnr1 two-hybrid fusion (plasmid pWJ745) (yeast (Saccharomyces cerevisiae), UniProt P21524 1-888)
T3 sequence (looked up): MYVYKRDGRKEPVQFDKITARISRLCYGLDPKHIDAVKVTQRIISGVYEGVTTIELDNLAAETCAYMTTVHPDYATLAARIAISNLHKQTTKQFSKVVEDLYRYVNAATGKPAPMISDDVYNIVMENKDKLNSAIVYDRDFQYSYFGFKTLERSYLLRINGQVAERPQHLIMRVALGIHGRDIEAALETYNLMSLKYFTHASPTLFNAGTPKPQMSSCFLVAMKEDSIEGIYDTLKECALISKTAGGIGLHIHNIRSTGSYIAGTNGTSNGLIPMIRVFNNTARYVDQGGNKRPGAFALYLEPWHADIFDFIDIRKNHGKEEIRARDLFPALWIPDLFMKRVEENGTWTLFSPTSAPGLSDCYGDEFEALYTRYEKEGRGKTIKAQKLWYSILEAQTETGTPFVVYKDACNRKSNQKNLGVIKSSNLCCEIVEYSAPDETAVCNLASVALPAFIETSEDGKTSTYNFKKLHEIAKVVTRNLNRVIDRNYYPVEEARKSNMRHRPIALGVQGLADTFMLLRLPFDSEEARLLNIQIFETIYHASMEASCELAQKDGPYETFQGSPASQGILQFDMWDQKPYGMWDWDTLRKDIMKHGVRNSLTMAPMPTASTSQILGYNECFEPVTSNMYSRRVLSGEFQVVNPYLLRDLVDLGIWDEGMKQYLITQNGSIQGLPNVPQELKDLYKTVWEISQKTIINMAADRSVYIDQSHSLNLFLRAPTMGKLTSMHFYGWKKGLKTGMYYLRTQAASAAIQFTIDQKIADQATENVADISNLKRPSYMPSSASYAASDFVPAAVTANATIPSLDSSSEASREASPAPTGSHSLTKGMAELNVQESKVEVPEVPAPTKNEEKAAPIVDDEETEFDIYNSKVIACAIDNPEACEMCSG

B1: GBD-Rnr2 two-hybrid fusion (plasmid pWJ729) (other, UniProt P04386 1-147, looked up)
chain: MKLLSSIEQACDICRLKKLKCSKEKPKCAKCLKNNWECRYSPKTKRSPLTRAHLTEVESRLERLEQLFLLIFPREDLDMILKMDSLQDIKALLTGLFVQDNVNKDAVTDRLASVETDMPLTLRQHRISATSSSEESSNKGQRQLTVSMPKETPSKAAADALSDLEIKDSKSNLNKELETLREENRVKSDMLKEKLSKDAENHKAYLKSHQVHRHKLKEMEKEEPLLNEDKERTVLFPIKYHEIWQAYKRAEASFWTAEEIDLSKDIHDWNNRMNENERFFISRVLAFFAASDGIVNENLVENFSTEVQIPEAKSFYGFQIMIENIHSETYSLLIDTYIKDPKESEFLFNAIHTIPEIGEKAEWALRWIQDADALFGERLVAFASIEGVFFSGSFASIFWLKKRGMMPGLTFSNELICRDEGLHTDFACLLFAHLKNKPDPAIVEKIVTEAVEIEQRYFLDALPVALLGMNADLMNQYVEFVADRLLVAFGNKKYYKVENPFDFMENISLAGKTNFFEKRVSDYQKAGVMSKSTKQEAGAFTFNEDF
B2: GAD-Sml1 two-hybrid fusion (plasmid pWJ684, pACTII) (other, not shown: large carriers)
chain: MQNSQDYFYAQNRCQQQQAPSTLRTVTMAEFRRVPLPPMAEVPMLSTQNSMGSSASASASSLEMWEKDLEERLNSIDHDMNNNKFGSGELKSMFNQGKVEEMDF

What was measured:
[1] = target: B2; assay: cell-based or functional assay
[2] = target: T1, GAD-Rnr2 two-hybrid fusion (plasmid …); assay: cell-based or functional assay
[3] = target: T2, GAD (Gal4 activation domain alone, …); assay: cell-based or functional assay
[4] = target: B1; assay: yeast two-hybrid, GAD-Sml1 with GBD-Rnr2
Source text: (§1) We next tested the possibility that Sml1 interacts with the subunit(s) of RNR since such interactions may provide a regulatory mechanism to inhibit RNR activity. […] In addition, Rnr1 and Rnr2 each interacts with itself, however these interactions are much weaker than the interaction between Sml1 and Rnr1 (Table 2).
(§2) The strains and plasmids for two-hybrid analysis were PJ69-4A, pGBD-C2, pGAD-C2 (James et al., 1996) and pACTII (CLONTECH® Inc.). The primer pair pB-SML1 5' (SEQ ID NO: 11) and pGBD-SML1 3' (SEQ ID NO: 13) (Table 4) was used to amplify the SML1 ORF. After digestion with BamHI and PstI, this PCR product was cloned into the BamHI-PstI sites of pGBD-C2 to construct plasmid pWJ728. Similarly, plasmid pWJ684 contains a BamHI fragment from the PCR product of the SML1 ORF generated using the primer pair pB-SML1 5' and pB-SML1 3' (SEQ ID NO: 12) (Table 4) and inserted at the BamHI site of pACTII. PCR fragments containing the RNR1 or the RNR2 ORF were generated by primer pairs RNR1-ORF 5' (SEQ ID NO: 14) and RNR1 3' (SEQ ID NO: 15) or RNR2-ORF 5' (SEQ ID NO: 17) and RNR2 3' (SEQ ID NO: 16) (Table 4). These fragments were cloned into the BamHI-PstI site of pGBD-C2 and pGAD-C2 to construct pWJ731 and pWJ745 or pWJ729 and pWJ746 respectively.
(§3) The GAL1-HIS3 reporter was assayed on SC-HIS-LEU-TRP medium plus 1-2 mM 3-aminotriazole. […]

[5] = target: T3, GAD-Rnr1 two-hybrid fusion (plasmid …); assay: cell-based or functional assay
[6] = target: T1, GAD-Rnr2 two-hybrid fusion (plasmid …); assay: yeast two-hybrid, GBD-Sml1 with GAD-Rnr2
Source text: as §1, §2, §3

Row | Binder | two-hybrid LacZ activity [1] | two-hybrid LacZ activity [2] | two-hybrid LacZ activity [3] | binding result [4] | two-hybrid LacZ activity [5] | binding result [6]
1 | B1 | 0.9 Miller Units | 2.3 Miller Units | 1.4 Miller Units |  |  | 
2 | B2 |  |  |  | no binding |  | 
3 | GBD-Sml1 two-hybrid fusion (plasmid pWJ728) (other, also called GBD fusion SML1) MKLLSSIEQACDICRLKKLKCSKEKPKCAKCLKNNWECRYSPKTKRSPLTRAHLTEVESRLERLEQLFLLIFPREDLDMILKMDSLQDIKALLTGLFVQDNVNKDAVTDRLASVETDMPLTLRQHRISATSSSEESSNKGQRQLTVSMQNSQDYFYAQNRCQQQQAPSTLRTVTMAEFRRVPLPPMAEVPMLSTQNSMGSSASASASSLEMWEKDLEERLNSIDHDMNNNKFGSGELKSMFNQGKVEEMDF | 3.3 Miller Units |  | 4 Miller Units |  | 31 Miller Units | no binding
